# Test results reported in IntAct's records for PubMed 22531782.
# B1: E3 ubiquitin-protein ligase RNF8 (Homo sapiens), O76064 (parent)
# chain: MGEPGFFVTGDRAGGRSWCLRRVGMSAGWLLLEDGCEVTVGRGFGVTYQLVSKICPLMISRNHCVLKQNPEGQWTIMDNKSLNGVWLNRARLEPLRVYSIHQGDYIQLGVPLENKENAEYEYEVTEEDWETIYPCLSPKNDQMIEKNKELRTKRKFSLDELAGPGAEGPSNLKSKINKVSCESGQPVKSQGKGEVASTPSDNLDPKLTALEPSKTTGAPIYPGFPKVTEVHHEQKASNSSASQRSLQMFKVTMSRILRLKIQMQEKHEAVMNVKKQTQKGNSKKVVQMEQELQDLQSQLCAEQAQQQARVEQLEKTFQEEEQHLQGLEIAQGEKDLKQQLAQALQEHWALMEELNRSKKDFEAIIQAKNKELEQTKEEKEKMQAQKEEVLSHMNDVLENELQCIICSEYFIEAVTLNCAHSFCSYCINEWMKRKIECPICRKDIKSKTYSLVLDNCINKMVNNLSSEVKERRIVLIRERKAKRLF
# Variants of: B1
# Conditions: with chd4_human CHD4, Q14839
# chd4_human CHD4, Q14839, sequence (Q14839 whole entry): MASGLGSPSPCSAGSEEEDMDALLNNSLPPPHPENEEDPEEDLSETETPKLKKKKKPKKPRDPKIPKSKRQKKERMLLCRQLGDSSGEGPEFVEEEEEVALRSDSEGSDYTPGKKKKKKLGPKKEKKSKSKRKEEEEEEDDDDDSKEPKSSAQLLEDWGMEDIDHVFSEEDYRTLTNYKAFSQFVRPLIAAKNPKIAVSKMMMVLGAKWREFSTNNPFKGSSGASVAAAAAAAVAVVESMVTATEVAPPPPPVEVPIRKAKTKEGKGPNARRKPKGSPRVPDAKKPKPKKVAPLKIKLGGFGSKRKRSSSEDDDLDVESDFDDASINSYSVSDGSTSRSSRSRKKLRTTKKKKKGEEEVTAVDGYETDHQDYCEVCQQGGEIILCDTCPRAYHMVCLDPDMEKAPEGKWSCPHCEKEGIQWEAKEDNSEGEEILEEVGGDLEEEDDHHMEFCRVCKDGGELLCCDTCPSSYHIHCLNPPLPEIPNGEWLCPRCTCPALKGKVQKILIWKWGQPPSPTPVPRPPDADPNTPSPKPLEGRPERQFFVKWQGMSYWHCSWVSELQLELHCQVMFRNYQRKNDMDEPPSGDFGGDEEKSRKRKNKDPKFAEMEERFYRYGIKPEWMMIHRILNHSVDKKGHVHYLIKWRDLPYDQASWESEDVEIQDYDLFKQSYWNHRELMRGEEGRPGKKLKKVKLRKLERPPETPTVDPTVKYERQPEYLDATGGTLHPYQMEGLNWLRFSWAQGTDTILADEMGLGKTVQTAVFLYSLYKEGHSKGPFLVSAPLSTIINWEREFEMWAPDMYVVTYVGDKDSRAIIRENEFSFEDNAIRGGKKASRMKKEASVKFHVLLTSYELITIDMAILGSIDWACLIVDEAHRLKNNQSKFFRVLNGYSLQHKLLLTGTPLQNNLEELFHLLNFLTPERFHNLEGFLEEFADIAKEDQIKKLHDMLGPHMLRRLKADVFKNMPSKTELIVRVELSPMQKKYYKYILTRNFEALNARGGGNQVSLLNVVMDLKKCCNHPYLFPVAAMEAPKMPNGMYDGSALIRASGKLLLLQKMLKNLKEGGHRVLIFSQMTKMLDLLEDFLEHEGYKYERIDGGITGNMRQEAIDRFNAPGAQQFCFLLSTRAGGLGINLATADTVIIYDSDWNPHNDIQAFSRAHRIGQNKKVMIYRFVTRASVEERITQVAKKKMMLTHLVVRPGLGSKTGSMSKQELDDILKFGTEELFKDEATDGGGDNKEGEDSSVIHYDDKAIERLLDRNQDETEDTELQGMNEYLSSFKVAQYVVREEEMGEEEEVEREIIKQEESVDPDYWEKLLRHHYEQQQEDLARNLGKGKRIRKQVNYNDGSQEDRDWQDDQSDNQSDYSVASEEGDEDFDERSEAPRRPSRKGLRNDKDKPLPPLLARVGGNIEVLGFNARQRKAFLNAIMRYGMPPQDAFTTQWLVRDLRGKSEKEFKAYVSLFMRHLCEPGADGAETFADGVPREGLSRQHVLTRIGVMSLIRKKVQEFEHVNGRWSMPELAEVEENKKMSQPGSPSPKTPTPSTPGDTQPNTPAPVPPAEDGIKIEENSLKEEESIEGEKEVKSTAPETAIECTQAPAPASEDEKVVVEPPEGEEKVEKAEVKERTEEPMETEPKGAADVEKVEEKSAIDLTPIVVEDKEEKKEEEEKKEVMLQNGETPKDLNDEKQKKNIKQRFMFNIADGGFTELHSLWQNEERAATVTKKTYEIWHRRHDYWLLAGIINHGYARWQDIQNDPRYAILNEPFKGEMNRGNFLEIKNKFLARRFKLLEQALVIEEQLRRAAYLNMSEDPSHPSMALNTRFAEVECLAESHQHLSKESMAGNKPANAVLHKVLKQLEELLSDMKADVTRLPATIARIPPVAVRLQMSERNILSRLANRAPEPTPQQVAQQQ
row,effect of a mutation on the interaction,Variant
1,increasing interaction,R42A
2,increasing interaction,C403S
